In publication PMC9988344 (mAbs, 2023):

B1: anti-uPAR recombinant antibody 3159 (mouse/human chimeric IgG1) (antibody, V domains shown)
VH: QVTLKESGPGILQSSLTLSLTCSLSGFSLSTSGMGVSWIRQPSGKGLEWLAHIYWDDDKRYNPSLKTRLTISKDASRDQVFLKIISVDTADTGTYYCGRRVRNYFSGTSYWYFDVWGTGTTVTVSS
VL: DVLMTQTPLSLSVSLGDQASISCRSSQNILHRTGNTYLEWYLQKPGQSPKLLIYKVSNRFSGVPDRFSGSGSGTDFTLKISRLEAEDLGVYYCFQGSYVPFTFGSGTKLEMK
B2: anti-uPAR recombinant antibody 11857 (mouse/human chimeric IgG1) (antibody, V domains shown)
VH: EVQLRQSGPELVKPGASVKISCKASGYTFTDYYMNWVKQSHEKSLEWIGNINPNNGGTDYNQKFKGKATLTVDKSSSTAYMELRSLTSEDSAVYYCARSYGSRFPYWGLGTLVTVSA
VL: DIQMTQTTSSLSASLGDRVTISCRASQDITNYLSWYQQKPDGTVKLLIFYTAVLQSGFPLRFSGSGSGADYSLTISNLEQEDFATYFCQQGHTLPWTFGGGTKLEIK
B3: anti-uPAR recombinant antibody 8163 (mouse/human chimeric IgG1) (antibody, V domains shown)
VH: EVQLVESGGGLVQPGESLTLSCDSNEFDFPSHDMSWVRKTPEKRLELVAAIDSDGGLTYYSNSRERRFIISRDNTKNTLYLQMRSLRSEDTALYYCARRRASYWYFDVWGTGTTVTVSS
VL: DILLTQSPAILPVSPGERVSFSCRASQNIGTSIHWYQQRTNGSPRLLIKYASESISGIPSRFSGSGSGTDFTLSINGVESEDIGDYYCQQSNSWPTFGGGTKLEIK

Assays:
[1] = target: T1, human uPAR on the surface of MDA-MB-231 cells (Homo sapiens (endogenous, MDA-MB-231), UniProt Q03405); experiment: cell-based or functional assay
T1 sequence (Q03405 23-305): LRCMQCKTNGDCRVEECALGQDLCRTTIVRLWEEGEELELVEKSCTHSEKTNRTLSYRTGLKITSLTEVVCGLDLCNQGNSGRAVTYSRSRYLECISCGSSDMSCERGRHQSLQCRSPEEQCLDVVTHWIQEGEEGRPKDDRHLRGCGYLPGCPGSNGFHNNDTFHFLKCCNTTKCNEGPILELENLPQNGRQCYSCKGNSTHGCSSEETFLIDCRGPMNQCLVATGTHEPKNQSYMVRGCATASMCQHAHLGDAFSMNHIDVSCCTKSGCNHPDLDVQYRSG

[2] = target: T1, human uPAR on the surface of MDA-MB-231 …; experiment: flow cytometry on cells
[3] = target: recombinant human soluble uPAR (suPAR) (human, UniProt Q03405, biotin (in the BLI experiments)); experiment: ELISA
Chain of recombinant human soluble uPAR (suPAR) (Q03405 23-305): as above

cynomolgus monkey uPAR = cynomolgus monkey uPAR (Macaca fascicularis, UniProt Q9GK78); experiment: ELISA
Chain of cynomolgus monkey uPAR (Q9GK78 23-305): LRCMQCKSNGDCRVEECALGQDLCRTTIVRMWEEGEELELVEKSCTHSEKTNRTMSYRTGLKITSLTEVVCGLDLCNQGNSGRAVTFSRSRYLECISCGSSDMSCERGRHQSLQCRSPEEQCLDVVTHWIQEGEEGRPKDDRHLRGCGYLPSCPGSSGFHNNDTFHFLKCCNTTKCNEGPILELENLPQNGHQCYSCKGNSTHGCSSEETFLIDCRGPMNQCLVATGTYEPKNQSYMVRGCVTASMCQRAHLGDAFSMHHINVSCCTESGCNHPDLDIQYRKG

| Binder | ADCC against MDA-MB-231 cells with NK-92 MI CD16a effector cells, EC50 [1] [nM] | ADCC against MDA-MB-231 cells with NK-92 MI CD16a effector cells, Max% [1] [%] | ADCC against MDA-MB-231 cells with human PBMCs, EC50 [1] [nM] | ADCC against MDA-MB-231 cells with human PBMCs, Max% [1] [%] | EC50 [2] [nM] | EC50 [3] [nM] | EC50 (cynomolgus monkey uPAR) [nM] |
| --- | --- | --- | --- | --- | --- | --- | --- |
| B1 | 0.89 | 28.2 | 0.11 | 47.4 | 0.92 | 0.53 | 0.27 |
| B2 | 5.59 | 27.2 | 0.35 | 52 | 2.07 | 0.52 | 0.18 |
| B3 | 1.14 | 18.8 | 0.09 | 57.5 | 0.69 | 0.41 | 0.15 |
